Assay results: paper PMC12507517, “Teamwork of clustered low-affinity κB sites and accessory factors regulates transcriptional strength of NF-κB RelA dimers”
Changes are numbered by the printed parent chain.

What was measured:
[1] = target: T1, RelA homodimer (UniProt Q04206 1-551); assay: EMSA; EMSA: 10 mM Tris-HCl pH 7.5, 50 mM NaCl, 10% glycerol, 1% NP-40, 1 mM EDTA, 0.1 mg/mL salmon sperm DNA, room temp; BLI: 25 mM Tris-HCl pH 7.5, 150 mM NaCl, 0.02% Tween 20, 0.1 mg/mL salmon sperm DNA, 1 mM DTT; details: protein: recombinant; tags: His; chain copies: 2; label: 32P
T1 sequence (Q04206 whole entry): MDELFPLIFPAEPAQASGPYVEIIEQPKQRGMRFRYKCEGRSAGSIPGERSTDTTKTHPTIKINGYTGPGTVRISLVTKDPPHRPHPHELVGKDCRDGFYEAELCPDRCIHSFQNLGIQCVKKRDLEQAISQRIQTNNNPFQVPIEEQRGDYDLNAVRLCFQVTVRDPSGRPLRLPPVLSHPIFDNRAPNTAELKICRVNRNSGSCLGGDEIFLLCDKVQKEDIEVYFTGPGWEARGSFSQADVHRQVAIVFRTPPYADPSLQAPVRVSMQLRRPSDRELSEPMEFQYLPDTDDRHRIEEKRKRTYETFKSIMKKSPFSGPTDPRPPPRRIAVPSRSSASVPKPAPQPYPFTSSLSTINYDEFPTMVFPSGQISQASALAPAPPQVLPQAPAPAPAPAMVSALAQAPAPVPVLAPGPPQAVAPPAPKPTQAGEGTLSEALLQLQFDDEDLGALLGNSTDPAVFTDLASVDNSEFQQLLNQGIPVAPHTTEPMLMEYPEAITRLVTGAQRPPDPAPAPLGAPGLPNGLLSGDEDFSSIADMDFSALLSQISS

[2] = target: T2, p50:RelA heterodimer, RelA chain;p50:RelA heterodimer, p50 chain (;, UniProt Q04206;P19838 1-551;1-435, |); assay: as above; details: protein: recombinant;recombinant; tags: His;His; copies: 1;1; label: 32P
T2 sequence (Q04206 whole entry, chain 1 of 2): as the sequence (Q04206 whole entry) above
T2 sequence (P19838 1-435, chain 2 of 2): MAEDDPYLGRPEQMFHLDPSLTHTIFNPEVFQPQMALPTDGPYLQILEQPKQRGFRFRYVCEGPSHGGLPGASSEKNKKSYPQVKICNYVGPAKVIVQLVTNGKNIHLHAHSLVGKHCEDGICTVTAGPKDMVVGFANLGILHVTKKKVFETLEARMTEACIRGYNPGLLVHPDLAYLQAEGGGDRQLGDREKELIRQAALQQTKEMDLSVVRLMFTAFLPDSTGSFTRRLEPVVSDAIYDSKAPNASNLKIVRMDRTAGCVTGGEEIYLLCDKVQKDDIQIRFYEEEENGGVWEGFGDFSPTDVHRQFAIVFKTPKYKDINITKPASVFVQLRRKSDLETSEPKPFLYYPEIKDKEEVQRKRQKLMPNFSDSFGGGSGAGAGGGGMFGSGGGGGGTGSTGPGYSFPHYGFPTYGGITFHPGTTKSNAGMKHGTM

[3] = target: T3, Nfatc1 (affinity-purified) (UniProt O95644 1-698); assay: as above; details: protein: recombinant; label: 32P
T3 sequence: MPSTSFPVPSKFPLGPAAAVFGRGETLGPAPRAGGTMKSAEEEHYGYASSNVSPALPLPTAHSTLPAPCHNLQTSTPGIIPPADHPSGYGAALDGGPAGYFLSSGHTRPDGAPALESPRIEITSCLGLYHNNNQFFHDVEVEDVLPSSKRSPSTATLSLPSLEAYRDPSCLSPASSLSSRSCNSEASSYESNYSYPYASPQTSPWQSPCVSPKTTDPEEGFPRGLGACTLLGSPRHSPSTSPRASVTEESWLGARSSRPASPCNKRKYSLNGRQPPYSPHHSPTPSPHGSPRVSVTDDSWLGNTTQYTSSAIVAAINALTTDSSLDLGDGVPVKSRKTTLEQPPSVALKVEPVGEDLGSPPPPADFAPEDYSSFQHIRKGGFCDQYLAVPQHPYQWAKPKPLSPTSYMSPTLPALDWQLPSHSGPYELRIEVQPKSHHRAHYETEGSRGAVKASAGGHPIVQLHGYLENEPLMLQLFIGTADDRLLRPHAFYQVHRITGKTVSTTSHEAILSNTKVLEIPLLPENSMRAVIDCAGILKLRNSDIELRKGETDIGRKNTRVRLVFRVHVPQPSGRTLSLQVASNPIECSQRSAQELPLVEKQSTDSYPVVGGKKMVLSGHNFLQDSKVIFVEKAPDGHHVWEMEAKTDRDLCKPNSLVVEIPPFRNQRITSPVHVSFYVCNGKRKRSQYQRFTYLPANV

[4] = target: T4, Tead3 (affinity-purified) (UniProt Q99594 1-435); assay: as above; details: protein: recombinant; label: 32P
T4 sequence (Q99594 whole entry): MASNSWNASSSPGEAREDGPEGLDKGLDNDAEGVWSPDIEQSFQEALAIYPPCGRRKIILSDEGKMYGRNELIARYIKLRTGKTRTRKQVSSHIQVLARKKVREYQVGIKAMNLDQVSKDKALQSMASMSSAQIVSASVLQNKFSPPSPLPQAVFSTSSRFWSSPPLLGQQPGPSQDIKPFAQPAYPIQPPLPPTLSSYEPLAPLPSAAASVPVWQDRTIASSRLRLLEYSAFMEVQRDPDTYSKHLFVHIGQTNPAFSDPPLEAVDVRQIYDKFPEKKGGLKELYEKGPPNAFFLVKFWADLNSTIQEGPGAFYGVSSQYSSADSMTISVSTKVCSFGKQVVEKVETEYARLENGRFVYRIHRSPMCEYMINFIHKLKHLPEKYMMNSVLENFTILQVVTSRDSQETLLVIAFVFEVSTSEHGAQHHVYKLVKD

[5] = target: T5, Nfat5 RHR WT (UniProt O94916 264-544); assay: EMSA; no observable binding; EMSA: 10 mM Tris-HCl pH 7.5, 50 mM NaCl, 10% glycerol, 1% NP-40, 1 mM EDTA, 0.1 mg/mL salmon sperm DNA, room temp; BLI: 25 mM Tris-HCl pH 7.5, 150 mM NaCl, 0.02% Tween 20, 0.1 mg/mL salmon sperm DNA, 1 mM DTT; details: protein: recombinant; chain copies: 2; label: 32P
T5 sequence: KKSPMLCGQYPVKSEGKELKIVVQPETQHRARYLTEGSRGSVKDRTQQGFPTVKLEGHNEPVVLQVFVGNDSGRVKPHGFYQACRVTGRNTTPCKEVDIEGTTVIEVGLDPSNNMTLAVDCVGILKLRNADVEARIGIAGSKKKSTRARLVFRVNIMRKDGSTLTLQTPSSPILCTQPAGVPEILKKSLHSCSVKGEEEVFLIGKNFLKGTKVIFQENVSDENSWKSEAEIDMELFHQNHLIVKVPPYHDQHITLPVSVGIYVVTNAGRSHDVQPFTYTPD

[6] = target: T6, Nfat5 RHR mutant (UniProt O94916 264-544, R295S;Y296S); assay: as above; details: protein: recombinant; chain copies: 2; label: 32P
T6 sequence: T5 sequence with R32S, Y33S

[7] = target: T4, Tead3 (affinity-purified); assay: EMSA; strong site only; EMSA: 10 mM Tris-HCl pH 7.5, 50 mM NaCl, 10% glycerol, 1% NP-40, 1 mM EDTA, 0.1 mg/mL salmon sperm DNA, room temp; BLI: 25 mM Tris-HCl pH 7.5, 150 mM NaCl, 0.02% Tween 20, 0.1 mg/mL salmon sperm DNA, 1 mM DTT; details: protein: recombinant; label: 32P
[8] = target: T1, RelA homodimer; assay: EMSA; no discernible effect of mutation; EMSA: 10 mM Tris-HCl pH 7.5, 50 mM NaCl, 10% glycerol, 1% NP-40, 1 mM EDTA, 0.1 mg/mL salmon sperm DNA, room temp; BLI: 25 mM Tris-HCl pH 7.5, 150 mM NaCl, 0.02% Tween 20, 0.1 mg/mL salmon sperm DNA, 1 mM DTT; details: protein: recombinant; tags: His; chain copies: 2; label: 32P
[9] = target: T2, p50:RelA heterodimer, RelA …; assay: as above; details: protein: recombinant;recombinant; tags: His;His; copies: 1;1; label: 32P
[10] = target: T1, RelA homodimer; assay: EMSA; binding retained; EMSA: 10 mM Tris-HCl pH 7.5, 50 mM NaCl, 10% glycerol, 1% NP-40, 1 mM EDTA, 0.1 mg/mL salmon sperm DNA, room temp; BLI: 25 mM Tris-HCl pH 7.5, 150 mM NaCl, 0.02% Tween 20, 0.1 mg/mL salmon sperm DNA, 1 mM DTT; details: protein: recombinant; tags: His; chain copies: 2; label: 32P
[11] = target: T2, p50:RelA heterodimer, RelA …; assay: as above; details: protein: recombinant;recombinant; tags: His;His; copies: 1;1; label: 32P
[12] = target: T4, Tead3 (affinity-purified); assay: EMSA; weak site only; EMSA: 10 mM Tris-HCl pH 7.5, 50 mM NaCl, 10% glycerol, 1% NP-40, 1 mM EDTA, 0.1 mg/mL salmon sperm DNA, room temp; BLI: 25 mM Tris-HCl pH 7.5, 150 mM NaCl, 0.02% Tween 20, 0.1 mg/mL salmon sperm DNA, 1 mM DTT; details: protein: recombinant; label: 32P

B1: 2DM Cxcl2 probe (both sites mutated) (dsDNA)
DNA 1: TCGACATGAGGGGACCCTGAGCTCAGCTAATTTGACTGGTCCCCGGGCTTTTGGAG
DNA 2: CTCCAAAAGCCCGGGGACCAGTCAAATTAGCTGAGCTCAGGGTCCCCTCATGTCGA
B1: no binding [1]; no binding [2]; no binding [3]. B1: no binding [4].

B2: Nfat EMSA probe (dsDNA)
DNA 1: B1 DNA 1 with C27G, T28G, G34C, A35C, G53C, G54C
DNA 2: B1 DNA 2 with C3G, C4G, T22G, C23G, A29C, G30C
B2: no binding [5]; no binding [6].

B3: 2WT Cxcl2 probe (dsDNA)
DNA 1: B1 DNA 1 with C27G, T28G, G34C, A35C, G53C, G54C
DNA 2: B1 DNA 2 with C3G, C4G, T22G, C23G, A29C, G30C
B3: binds [3]; binds [4].

B4: 2ΔW Cxcl2 probe (weak site mutated) (dsDNA)
DNA 1: B1 DNA 1 with C27G, T28G, G34C, A35C
DNA 2: B1 DNA 2 with T22G, C23G, A29C, G30C
B4: binds [7]; binds [8]; binds [9]. B4: binds [3].

B5: 2ΔS Cxcl2 probe (strong site mutated) (dsDNA)
DNA 1: B1 DNA 1 with G53C, G54C
DNA 2: B1 DNA 2 with C3G, C4G
B5: binds [10]; binds [11]; no binding [12]. B5: binds [3].
